Results taken from patent US20170146535A1 (SPRING BIOSCIENCE, published 2017).
Where a chain is given by its changes, count along the chain named.

B1: J6H15L16 antibody (antibody, V domains shown)
VH: QEQLVESGGGLVQPEGSLTLTCTASGFSFSTNYWICWVRQAPGKGLEWTACIYIGGRGSIYYASWAKGRFTISKTSSTTVTLQMTSLTAADTATYFCARDLTTAYGATDLRFWGPGTLVTVSS
VL: DVVMTQTPSPVSAAVGGTVSISCQSSQSVGDNNRLSWFQQKPGQPPKLLIYSASTLASGVPSRFKGSGSGTEYTLTISGVQCDDAATYYCLGEFSGSDEDVFGGGTEVVVK
notes: the constant regions are not
B2: anti-IDO1 antibody SP260 (antibody, V domains shown)
VH: B1 VH with I54V
VL: B1 VL
notes: the constant regions are not
B3: J6H12L16 antibody (antibody, V domains shown)
VH: B1 VH with Q13R
VL: B1 VL
notes: the constant regions are not
B4: J6H20L16 antibody (antibody, V domains shown)
VH: B1 VH with F96S
VL: B1 VL
notes: the constant regions are not

biological target: human indoleamine 2,3-dioxygenase 1 (IDO1) (human, UniProt P14902 1-403); experiment: IHC on FFPE HeLa cells (untreated or IFN-gamma treated) and FFPE human tissues
Sequence (P14902 whole entry): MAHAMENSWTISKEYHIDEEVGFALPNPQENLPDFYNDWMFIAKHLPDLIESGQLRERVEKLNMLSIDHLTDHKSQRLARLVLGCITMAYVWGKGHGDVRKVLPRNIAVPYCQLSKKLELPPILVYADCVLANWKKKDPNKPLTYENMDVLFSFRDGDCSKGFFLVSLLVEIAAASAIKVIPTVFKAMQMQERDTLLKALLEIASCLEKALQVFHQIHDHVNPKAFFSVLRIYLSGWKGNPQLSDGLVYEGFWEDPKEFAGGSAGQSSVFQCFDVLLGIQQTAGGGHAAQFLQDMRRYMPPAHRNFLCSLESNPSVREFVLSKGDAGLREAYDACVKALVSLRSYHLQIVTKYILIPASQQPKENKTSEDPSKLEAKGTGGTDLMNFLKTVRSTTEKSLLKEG
Method: The anti-IDO1 antibodies generated in Example 1 were used in further IHC analyses. For IHC analyses, tissue sections were incubated with the antibodies for 16 min followed by standard washes and secondary detection with Optiview DAB IHC Detection Kit (Ventana Medical System, Inc., Tucson, Ariz.). The specificity of each antibody was assessed on formalin-fixed, paraffin-embedded (FFPE) cells with different IDO1 expression levels (human cervical cancer HeLa cells that are either untreated as control (negative) or treated with interferon-γ (high expression); see FIGS. 2A-2b) or from different tissue types (Tonsil, Thymus, Colon, Endometrial adenocarcinoma, Ovarian adenocarcinoma, Pancreatic adenocarcinoma, and Stomach adenocarcinoma; see FIGS. 3A-3G).

Binding result, binds:
B1
B2
B3
B4
